Values quoted from earlier work as cited in patent US20260125483A1, “COMPOSITIONS OF IL-6/IL-6R ANTIBODIES AND METHODS OF USE THEREOF” (Tiziana Life Sciences PLC, priority 2020, published 2026).

Target: IL-6Rc (Homo sapiens, UniProt P05231+P08887)
Details: binding to gp130 to induce the signaling cascade; WO/2009/140348

Chain of IL-6Rc (P08887 20-468): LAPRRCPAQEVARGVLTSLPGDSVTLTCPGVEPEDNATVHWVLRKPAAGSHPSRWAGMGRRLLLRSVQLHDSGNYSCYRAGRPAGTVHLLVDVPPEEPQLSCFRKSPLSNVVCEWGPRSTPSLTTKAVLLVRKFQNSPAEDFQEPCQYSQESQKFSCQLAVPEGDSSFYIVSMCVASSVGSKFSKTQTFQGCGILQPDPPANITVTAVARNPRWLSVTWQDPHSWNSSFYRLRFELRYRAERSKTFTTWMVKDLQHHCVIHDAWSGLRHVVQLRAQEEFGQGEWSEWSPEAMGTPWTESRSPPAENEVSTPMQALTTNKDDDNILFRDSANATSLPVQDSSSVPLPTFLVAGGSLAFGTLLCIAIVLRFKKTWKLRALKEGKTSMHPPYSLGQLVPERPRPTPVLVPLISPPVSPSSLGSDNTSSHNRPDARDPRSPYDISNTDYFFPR
Chain of IL-6Rc (P05231 30-212): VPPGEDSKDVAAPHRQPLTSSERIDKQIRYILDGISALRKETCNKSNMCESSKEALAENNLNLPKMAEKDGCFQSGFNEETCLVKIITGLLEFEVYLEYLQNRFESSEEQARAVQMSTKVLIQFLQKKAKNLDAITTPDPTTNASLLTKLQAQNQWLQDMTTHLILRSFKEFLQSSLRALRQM

Molecule	functional activity of IL-6Rc in vitro
39B9 VL1: IL-6R antibody, heavy chain variable region SEQ ID NO:2, light chain variable region SEQ ID NO: 4 (antibody, V domains shown, 3B9 VL1-VH amino acid sequence; 39B9 VL1-VL amino acid sequence) VH: QVQLVQSGAEVKKPGSSVKVSCKASGGTFSSYAISWVRQAPGQGLEWMGGIIPLFDTTKYAQQFQGRVTITADESTSTAYMELSSLRSEDTAVFYCARDRDILTDYYPMGGMDVWGQGTTVTVSS VL: AIQLTQSPSSLSASVGDRVTITCRASQGISSVLAWYQQKPGKAPKLLIYDASSLESGVPSRFSGSGSGTDFTLTISSLQPEDFATYYCQQSNSYPLTFGGGTKVEIKR	inhibit the functional activity of IL-6Rc
39B9 VL5: IL-6R antibody, heavy chain variable region SEQ ID NO:2, light chain variable region SEQ ID NO: 6 (antibody, V domains shown, 3B9 VL1-VH amino acid sequence; 39B9 VL5-VL amino acid sequence) VH: QVQLVQSGAEVKKPGSSVKVSCKASGGTFSSYAISWVRQAPGQGLEWMGGIIPLFDTTKYAQQFQGRVTITADESTSTAYMELSSLRSEDTAVFYCARDRDILTDYYPMGGMDVWGQGTTVTVSS VL: DILMTQSPSSLSASVGDRVTITCRASQDISSWLAWYQQKPGKAPKLLIYDASSLESGVPSRFSGSGSGTDFTLTISSLQPEDFATYYCQQSNSYPLTFGGGTKVEIKR	inhibit the functional activity of IL-6Rc
12A: IL-6R antibody, heavy chain variable region SEQ ID NO:8, light chain variable region SEQ ID NO: 10 (antibody, V domains shown, 12A VH amino acid sequence; 12A VL amino acid sequence) VH: QVQLVESWGGVVQPGRSLRLSCAASGFTFSNYDMYWVRQAPGKGLEWVAVILDDGNNNYYADSVKGRFTISRDNSKKKVYLQMNSLRAEDTAVYYCVRASPNWGLLDFWGQGTLVTVSS VL: EIVLTQSPSSLSASVGDRVTITCRASQGISSWLAWYQQKPGKAPKLLIYDASSLESGVPSRFSGSGSGTDFTLTISSLQPEDFATYYCQQFNSYPITFGQGTRLEIKR	inhibit the functional activity of IL-6Rc
5C: IL-6R antibody, heavy chain variable region SEQ ID NO: 12, light chain variable region SEQ ID NO: 14 (antibody, V domains shown, 5C VH amino acid sequence; 5C VL amino acid sequence) VH: QVQLVQSGGGVVQPGRSLRLSCAASGFIFSSYDMYWVRQAPGKGLEWVAVILYDGNNKYYADSVKGRFTISRDNSKNTVYLQMNSLRAEDTAVYYCVRASPNWGLFDFWGQGTLVTVSS VL: DIQMTQSPSSLSASVGDRVTITCRASQGISSDLAWYQQKPGKAPKLLMYDASSLESGVPSRFSGSGSGTDFTLTISSLQPEDFATYYCQQFNSYPITFGQGTRLEIKR	inhibit the functional activity of IL-6Rc
